Literature values, collected in publication PMC6472351.
pKd: −log10 of the molar value. “And” between values parts separate entries of the source, which are not always exact repeats. Identical values can stand only once. Like-named read-outs stand apart in the source and are kept apart here.

Key:
[1] = molecular target: Histone H3 (Homo sapiens) (UniProt P68431)
[2] = molecular target: Histone H3 (Homo sapiens) (UniProt P68431); remark: listed apart in the source

pKd [1]	pKd [2]	Substance
5.22 and 6.00		DIDO PHD (from UniProt Q9BTC0)
	5.30 and 5.15	GLP ankyrin (from UniProt Q9H9B1)
